Experimental data as given in article doi:10.1101/2025.01.14.632894 (bioRxiv, 2025).

Columns and labels:
[1] = target: the molecule itself; test: SAXS
[2] = target: the molecule itself; test: mass photometry

Row | Protein | binding result [1] | stoichiometry N [2]
1 | CCDC6-RET lacking the c-terminal segment of RET (CCDC6 1-101 fused to RET aa 713-1013) (enzyme, human, UniProt Q16204 1-101, looked up) MADSASESDTDGAGGNSSSSAAMQSSCSSTSGGGGGGGGGGGGGKSGGIVISPFRLEELTNRLASLQQENKVLKIELETYKLKCKALQEENRDLRKASVTIEDPKWEFPRKNLVLGKTLGEGEFGKVVKATAFHLKGRAGYTTVAVKMLKENASPSELRDLLSEFNVLKQVNHPHVIKLYGACSQDGPLLLIVEYAKYGSLRGFLRESRKVGPGYLGSGGSRNSSSLDHPDERALTMGDLISFAWQISQGMQYLAEMKLVHRDLAARNILVAEGRKMKISDFGLSRDVYEEDSYVKRSQGRIPVKWMAIESLFDHIYTTQSDVWSFGVLLWEIVTLGGNPYPGIPPERLFNLLKTGHRMERPDNCSEEMYRLMLQCWKQEPDKRPVFADISKDLEKMMVKRR | binds | –
2 | CCDC6-RET fusion product (CCDC6 residues 1-101 fused to RET residues 713-1072), wild type, apo (un-phosphorylated) state (enzyme, human, UniProt Q16204 1-101, looked up, activation loop Tyr 900 and c-terminal Ser 1034 showed high levels of phosphorylation in the basal state) MADSASESDTDGAGGNSSSSAAMQSSCSSTSGGGGGGGGGGGGGKSGGIVISPFRLEELTNRLASLQQENKVLKIELETYKLKCKALQEENRDLRKASVTIEDPKWEFPRKNLVLGKTLGEGEFGKVVKATAFHLKGRAGYTTVAVKMLKENASPSELRDLLSEFNVLKQVNHPHVIKLYGACSQDGPLLLIVEYAKYGSLRGFLRESRKVGPGYLGSGGSRNSSSLDHPDERALTMGDLISFAWQISQGMQYLAEMKLVHRDLAARNILVAEGRKMKISDFGLSRDVYEEDSYVKRSQGRIPVKWMAIESLFDHIYTTQSDVWSFGVLLWEIVTLGGNPYPGIPPERLFNLLKTGHRMERPDNCSEEMYRLMLQCWKQEPDKRPVFADISKDLEKMMVKRRDYLDLAASTPSDSLIYDDGLSEEETPLVDCNNAPLPRALPSTWIENKLYGRISHAFTRF | – | 2
